Target: T1, HLA-A*02:01 (human)
T1 construct: Peptide-receptive HLA-A*02:01 monomer obtained by UV cleavage of a UV-sensitive ligand; captured on streptavidin plates; also called peptide-receptive MHC molecules; MHC class I
Test: UV-ligand exchange, anti-b2m ELISA; grade of peptide exchange yield (>10% = +; >20% = ++; >50 = +++; >75% = ++++)
Source text: Candidate peptides for T cell based therapies according to the present invention were further tested for their MHC binding capacity (affinity). The individual peptide-MHC complexes were produced by UV-ligand exchange, where a UV-sensitive peptide is cleaved upon UV-irradiation, and exchanged with the peptide of interest as analyzed. Only peptide candidates that can effectively bind and stabilize the peptide-receptive MHC molecules prevent dissociation of the MHC complexes. To determine the yield of the exchange reaction, an ELISA was performed based on the detection of the light chain (β2m) of stabilized MHC complexes. The assay was performed as generally described in Rodenko et al. (Rodenko et al., 2006).
96 well MAXISorp plates (NUNC) were coated over night with 2 ug/ml streptavidin in PBS at room temperature, washed 4× and blocked for 1 h at 37° C. in 2% BSA containing blocking buffer. Refolded HLA-A*02:01/MLA-001 monomers served as standards, covering the range of 15-500 ng/ml. Peptide-MHC monomers of the UV-exchange reaction were diluted 100-fold in blocking buffer. Samples were incubated for 1 h at 37° C., washed four times, incubated with 2 ug/ml HRP conjugated anti-β2m for 1 h at 37° C., washed again and detected with TMB solution that is stopped with […]. Absorption was measured at 450 nm. Candidate peptides that show a high exchange yield (preferably higher than 50%, most preferred higher than 75%) are generally preferred for a generation and production of antibodies or fragments thereof, and/or T cell receptors or fragments thereof, as they show sufficient avidity to the MHC molecules and prevent dissociation of the MHC complexes.

peptide exchange yield	Binder
> 75%	ILSSACYTV
50 to 75%	VLNVGVAEV
> 75%	KLLPGVQYV
50 to 75%	LLTPLNLQI
50 to 75%	RLSGEGVGPV
> 75%	AVLGGKLYV
50 to 75%	ALYDAELSQM
50 to 75%	SLSDIQPCL
50 to 75%	SLGNFKDDLL
50 to 75%	VLDINDNPPV
> 75%	FLIPSIIFA

The next lines start with the binder.

Binder	peptide exchange yield
ALYTSGHLL	> 75%
VCPPGGIQEV	50 to 75%
YLLDYPNNL	50 to 75%
ILLEDVFQL	> 75%
GLISSIEAQL	> 75%
GLGDDSFPI	> 75%
QLLEGELETL	50 to 75%
FLQLETEQV	> 75%
FVAGYIAGV	> 75%
RLVEVGGDVQL	> 75%
YLQNEVFGL	50 to 75%
LLPEDDTRDNV	50 to 75%
AILGFALSEA	> 75%
ALSNVVHKV	> 75%
YLWEAHTNI	> 75%
RLNGEGVGQVNISV	20 to 50%
LLFTGLVSGV	50 to 75%
GLIEWLENTV	> 75%
ILDINDNPPV	50 to 75%

— patent US20200155602A1 (IMMATICS BIOTECHNOLOGIES, published 2020)
